In patent publication US20180326084A1 (Genmab, published 2018):

Experiments:
[1] = molecular target: T1, Homo sapiens AXL-Mus musculus Ig2 domain (p33-AXL-mIg2) (human-mouse chimera, UniProt P30530 26-894); experiment: flow cytometry, 1 µg/mL antibody, transfected HEK293F cells
T1 construct: Expressed in HEK293F cells; also called hsAXL-mmIg2; TH1021-mIg2
T1 chain: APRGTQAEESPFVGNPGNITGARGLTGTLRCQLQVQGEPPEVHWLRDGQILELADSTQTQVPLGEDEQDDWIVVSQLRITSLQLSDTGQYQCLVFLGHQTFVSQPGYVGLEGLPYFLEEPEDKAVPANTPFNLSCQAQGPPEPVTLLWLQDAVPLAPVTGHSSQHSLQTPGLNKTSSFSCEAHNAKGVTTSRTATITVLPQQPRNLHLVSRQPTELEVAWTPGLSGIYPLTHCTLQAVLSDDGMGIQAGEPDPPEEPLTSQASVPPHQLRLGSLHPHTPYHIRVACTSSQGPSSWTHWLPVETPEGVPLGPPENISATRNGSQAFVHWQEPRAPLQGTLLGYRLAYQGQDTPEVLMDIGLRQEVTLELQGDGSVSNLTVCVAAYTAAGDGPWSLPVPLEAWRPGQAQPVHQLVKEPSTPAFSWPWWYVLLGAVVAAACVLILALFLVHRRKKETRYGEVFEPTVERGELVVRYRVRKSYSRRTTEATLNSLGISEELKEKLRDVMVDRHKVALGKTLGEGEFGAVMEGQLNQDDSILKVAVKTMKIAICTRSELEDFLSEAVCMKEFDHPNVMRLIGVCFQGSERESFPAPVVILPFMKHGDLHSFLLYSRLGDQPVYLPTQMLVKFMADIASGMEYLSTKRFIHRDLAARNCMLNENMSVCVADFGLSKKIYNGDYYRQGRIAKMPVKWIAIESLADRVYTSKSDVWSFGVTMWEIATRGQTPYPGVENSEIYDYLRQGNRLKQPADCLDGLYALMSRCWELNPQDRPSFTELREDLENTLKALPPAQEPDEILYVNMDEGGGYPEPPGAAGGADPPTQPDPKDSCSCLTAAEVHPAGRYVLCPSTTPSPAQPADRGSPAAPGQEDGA

[2] = molecular target: T2, Homo sapiens AXL-Mus musculus FN2 domain (p33-AXL-mFN2) (human-mouse chimera, UniProt P30530 26-894); experiment: as above
T2 construct: Expressed in HEK293F cells; also called hsAXL-mmFN2; TH1021-mFN2
T2 chain: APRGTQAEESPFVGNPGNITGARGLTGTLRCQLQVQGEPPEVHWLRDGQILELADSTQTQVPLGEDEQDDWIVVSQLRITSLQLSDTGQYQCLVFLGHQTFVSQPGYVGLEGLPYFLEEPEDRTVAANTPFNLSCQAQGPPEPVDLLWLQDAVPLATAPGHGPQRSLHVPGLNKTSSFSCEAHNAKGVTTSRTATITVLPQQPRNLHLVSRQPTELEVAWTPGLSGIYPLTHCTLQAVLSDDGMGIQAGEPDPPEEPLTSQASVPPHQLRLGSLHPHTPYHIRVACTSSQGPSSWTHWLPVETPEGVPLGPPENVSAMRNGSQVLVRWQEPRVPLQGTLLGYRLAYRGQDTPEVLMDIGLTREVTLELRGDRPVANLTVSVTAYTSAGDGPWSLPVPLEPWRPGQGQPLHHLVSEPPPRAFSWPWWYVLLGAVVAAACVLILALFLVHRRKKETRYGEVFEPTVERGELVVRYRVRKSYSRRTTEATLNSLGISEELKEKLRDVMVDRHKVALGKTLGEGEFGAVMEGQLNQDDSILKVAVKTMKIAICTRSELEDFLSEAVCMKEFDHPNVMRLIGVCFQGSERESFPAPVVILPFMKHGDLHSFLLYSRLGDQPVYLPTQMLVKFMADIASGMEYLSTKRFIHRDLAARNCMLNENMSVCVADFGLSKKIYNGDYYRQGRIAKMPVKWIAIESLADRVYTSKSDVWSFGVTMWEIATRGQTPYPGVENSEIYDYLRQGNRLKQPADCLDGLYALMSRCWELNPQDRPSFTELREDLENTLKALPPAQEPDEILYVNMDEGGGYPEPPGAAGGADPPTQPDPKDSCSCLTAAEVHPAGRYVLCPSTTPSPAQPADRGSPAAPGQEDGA

[3] = molecular target: T3, human AXL (full length) (human, UniProt P30530 26-894); experiment: flow cytometry, A431 cells, no Gas6
T3 construct: also called TH1021-AXL; TH1021-hAXL

[4] = molecular target: T4, Homo sapiens AXL-Mus musculus FN1 domain (p33-AXL-mFN1) (human-mouse chimera, UniProt P30530 26-894); experiment: flow cytometry, 1 µg/mL antibody, transfected HEK293F cells
T4 construct: Expressed in HEK293F cells; also called hsAXL-mmFN1; TH1021-mFN1
T4 chain: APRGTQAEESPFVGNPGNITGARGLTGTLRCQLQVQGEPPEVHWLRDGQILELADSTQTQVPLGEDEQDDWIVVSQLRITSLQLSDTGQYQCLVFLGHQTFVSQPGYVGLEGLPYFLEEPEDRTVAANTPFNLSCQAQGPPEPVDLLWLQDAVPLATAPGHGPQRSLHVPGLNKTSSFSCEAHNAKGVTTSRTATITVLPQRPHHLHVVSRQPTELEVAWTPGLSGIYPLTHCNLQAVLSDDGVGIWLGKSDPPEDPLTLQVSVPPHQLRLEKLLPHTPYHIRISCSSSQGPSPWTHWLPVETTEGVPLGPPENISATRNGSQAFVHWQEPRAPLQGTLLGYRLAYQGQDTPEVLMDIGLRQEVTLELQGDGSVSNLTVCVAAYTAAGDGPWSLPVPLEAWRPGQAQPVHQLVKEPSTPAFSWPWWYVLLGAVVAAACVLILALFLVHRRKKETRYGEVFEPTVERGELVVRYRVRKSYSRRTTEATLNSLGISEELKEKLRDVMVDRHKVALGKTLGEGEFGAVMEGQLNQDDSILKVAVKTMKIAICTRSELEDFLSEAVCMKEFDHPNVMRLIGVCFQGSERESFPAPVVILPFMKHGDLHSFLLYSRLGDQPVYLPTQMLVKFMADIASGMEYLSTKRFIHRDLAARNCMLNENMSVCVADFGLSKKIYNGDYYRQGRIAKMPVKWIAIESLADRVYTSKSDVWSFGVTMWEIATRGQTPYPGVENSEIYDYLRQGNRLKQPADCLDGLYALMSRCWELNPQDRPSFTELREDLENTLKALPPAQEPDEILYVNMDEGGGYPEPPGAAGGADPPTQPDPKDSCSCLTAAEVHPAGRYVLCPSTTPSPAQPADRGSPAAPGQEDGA

[5] = molecular target: T3, human AXL (full length); experiment: flow cytometry, A431 cells pre-incubated with 10 µg/mL Gas6 (competitor)
[6] = molecular target: T3, human AXL (full length); experiment: flow cytometry, Gas6 titrated on A431 cells pre-incubated with 10 µg/mL YW327.6S2 (competitor); value less accurate due to low binding
[7] = molecular target: T3, human AXL (full length); experiment: flow cytometry, Gas6 titrated on A431 cells pre-incubated with 10 µg/mL IgG1-AXL-511 (competitor)
[8] = molecular target: T3, human AXL (full length); experiment: flow cytometry, Gas6 titrated on A431 cells pre-incubated with 10 µg/mL IgG1-AXL-613 (competitor)
[9] = molecular target: T3, human AXL (full length); experiment: flow cytometry, Gas6 titrated on A431 cells pre-incubated with 10 µg/mL IgG1-AXL-107 (competitor)
[10] = molecular target: T3, human AXL (full length); experiment: flow cytometry, Gas6 titrated on A431 cells pre-incubated with 10 µg/mL IgG1-AXL-613 (competitor); remark: listed apart in the source
[11] = molecular target: T3, human AXL (full length); experiment: flow cytometry, Gas6 titrated on A431 cells pre-incubated with 10 µg/mL IgG1-AXL-183 (competitor)
[12] = molecular target: T3, human AXL (full length); experiment: flow cytometry, Gas6 titrated on A431 cells pre-incubated with 10 µg/mL control antibody b12
[13] = molecular target: T3, human AXL (full length); experiment: as above; remark: listed apart in the source
[14] = molecular target: T3, human AXL (full length); experiment: flow cytometry, Gas6 titrated on A431 cells pre-incubated with 10 µg/mL IgG1-AXL-733 (competitor)
[15] = molecular target: T3, human AXL (full length); experiment: flow cytometry, Gas6 titrated on A431 cells pre-incubated with 10 µg/mL IgG1-AXL-148 (competitor)
[16] = molecular target: T3, human AXL (full length); experiment: flow cytometry, Gas6 titrated on A431 cells pre-incubated with 10 µg/mL IgG1-AXL-171 (competitor)
[17] = molecular target: T3, human AXL (full length); experiment: flow cytometry, Gas6 titrated on A431 cells pre-incubated with 10 µg/mL YW327.6S2 (competitor); value less accurate due to low binding; remark: listed apart in the source
[18] = molecular target: T3, human AXL (full length); experiment: flow cytometry, Gas6 titrated on A431 cells pre-incubated with 10 µg/mL IgG1-AXL-726 (competitor)
[19] = molecular target: T3, human AXL (full length); experiment: flow cytometry, Gas6 titrated on A431 cells pre-incubated with 10 µg/mL IgG1-AXL-154 (competitor)
[20] = molecular target: T3, human AXL (full length); experiment: flow cytometry, Gas6 titrated on A431 cells pre-incubated with 10 µg/mL IgG1-AXL-107 (competitor); remark: listed apart in the source
[21] = molecular target: T3, human AXL (full length); experiment: flow cytometry, A431 cells pre-incubated with medium only; Gas6 detected with mouse anti-Gas6 and FITC anti-mouse IgG

B1: IgG1-AXL-061 (antibody, V domains shown)
VH: QVQLVQSGAEVKKPGASVKVSCKASGYAFTGYGISWVRQAPGQGLEWIGWISAYNGNTNYVQNLQDRVTMTTDTSTSTAYMELRSLRSDDTAVYYCARDHISMLRGIIIRNYWGQGTLVTVSS
VL: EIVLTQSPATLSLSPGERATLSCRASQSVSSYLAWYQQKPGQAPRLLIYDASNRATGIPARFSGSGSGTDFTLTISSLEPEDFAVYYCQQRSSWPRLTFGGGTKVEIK
- binding result [1]: binds
- binding result [2]: binds
- EC50 [3]: 0.15 µg/mL
- binding result [4]: binds
- maximal binding in presence of Gas6 (% of binding in absence of Gas6) [5]: 43%

B2: recombinant human Gas6 (ligand, UniProt Q14393 49-678, looked up)
chain: AFQVFEEAKQGHLERECVEELCSREEAREVFENDPETDYFYPRYLDCINKYGSPYTKNSGFATCVQNLPDQCTPNPCDRKGTQACQDLMGNFFCLCKAGWGGRLCDKDVNECSQENGGCLQICHNKPGSFHCSCHSGFELSSDGRTCQDIDECADSEACGEARCKNLPGSYSCLCDEGFAYSSQEKACRDVDECLQGRCEQVCVNSPGSYTCHCDGRGGLKLSQDMDTCEDILPCVPFSVAKSVKSLYLGRMFSGTPVIRLRFKRLQPTRLVAEFDFRTFDPEGILLFAGGHQDSTWIVLALRAGRLELQLRYNGVGRVTSSGPVINHGMWQTISVEELARNLVIKVNRDAVMKIAVAGDLFQPERGLYHLNLTVGGIPFHEKDLVQPINPRLDGCMRSWNWLNGEDTTIQETVKVNTRMQCFSVTERGSFYPGSGFAFYSLDYMRTPLDVGTESTWEVEVVAHIRPAADTGVLFALWAPDLRAVPLSVALVDYHSTKKLKKQLVVLAVEHTALALMEIKVCDGQEHVVTVSLRDGEATLEVDGTRGQSEVSAAQLQERLAVLERHLRSPVLTFAGGLPDVPVTSAPVTAFYRGCMTLEVNRRLLDLDEAAYKHSDITAHSCPPVEPAAA
notes: Bought reagent; also called hGas6; Growth Arrest-Specific 6
- EC50 [6]: 5.53 µg/mL
- EC50 [7]: 0.74 µg/mL
- EC50 [8]: 0.57 µg/mL
- EC50 [9]: 0.78 µg/mL
- EC50 [10]: 0.57 µg/mL
- EC50 [11]: 0.34 µg/mL
- EC50 [12]: 0.4 µg/mL
- EC50 [13]: 0.4 µg/mL
- EC50 [14]: 0.83 µg/mL
- EC50 [15]: 0.73 µg/mL
- EC50 [16]: 0.69 µg/mL
- EC50 [17]: 5.53 µg/mL
- EC50 [18]: 0.77 µg/mL
- EC50 [19]: 0.44 µg/mL
- EC50 [20]: 0.78 µg/mL
- EC50 (read off the curve) [21]: ~0.1 µg/mL
